Test results: patent publication CN113173995A (SHANGHAI PUBLIC HEALTH CLINICAL CT, dated 2021)

Tests used:
Assay in all cases: cell-based or functional assay
SARS-CoV-2 S蛋白突变株E309D = SARS-CoV-2 S蛋白突变株E309D (SARS-CoV-2, UniProt P0DTC2 14-1273)
SARS-CoV-2 S蛋白突变株T376A = SARS-CoV-2 S蛋白突变株T376A (SARS-CoV-2, UniProt P0DTC2 14-1273)
SARS-CoV-2 S蛋白突变株A372T = SARS-CoV-2 S蛋白突变株A372T (SARS-CoV-2, UniProt P0DTC2 14-1273)
SARS-CoV-2 S蛋白突变株P491A = SARS-CoV-2 S蛋白突变株P491A (SARS-CoV-2, UniProt P0DTC2 14-1273)
SARS-CoV-2 S蛋白突变株F342L = SARS-CoV-2 S蛋白突变株F342L (SARS-CoV-2, UniProt P0DTC2 14-1273)

Measured: 假病毒中和 IC50 (Huh-7细胞, 荧光素酶)

B1: 全人源新型冠状病毒单抗REGN10989 (antibody, V domains shown)
VH: QVQLVQSGAEVKKPGASVKVSCKASGYIFTGYYMHWVRQAPGQGLEWMGWINPNSGGANYAQKFQGRVTLTRDTSITTVYMELSRLRFDDTAVYYCARGSRYDWNQNNWFDPWGQGTLVTVSS
VL: QSALTQPASVSGSPGQSITISCTGTSSDVGTYNYVSWYQQHPGKAPKLMIFDVSNRPSGVSDRFSGSKSGNTASLTISGLQAEDEADYYCSSFTTSSTVVFGGGTKLTVL
> 50 µg/mL: SARS-CoV-2 S蛋白突变株E309D | SARS-CoV-2 S蛋白突变株T376A | SARS-CoV-2 S蛋白突变株A372T | SARS-CoV-2 S蛋白突变株P491A | SARS-CoV-2 S蛋白突变株F342L
